Results on five molecules are retold here after US20240084003A1 (SIMCERE ZAIMING PHARMACEUTICAL, published 2024).

Broadly, the Kd is the concentration at which binding is half-saturated. As a reminder, the koff is the first-order rate constant of dissociation. Usually kon stands for the second-order rate constant of association.

One test concerns the target T1, human CD22 domain5-7-His (human, UniProt P20273 414-687).
T1 construct: also called hCD22 domain5-7-His; not shown: His tag
T1 sequence: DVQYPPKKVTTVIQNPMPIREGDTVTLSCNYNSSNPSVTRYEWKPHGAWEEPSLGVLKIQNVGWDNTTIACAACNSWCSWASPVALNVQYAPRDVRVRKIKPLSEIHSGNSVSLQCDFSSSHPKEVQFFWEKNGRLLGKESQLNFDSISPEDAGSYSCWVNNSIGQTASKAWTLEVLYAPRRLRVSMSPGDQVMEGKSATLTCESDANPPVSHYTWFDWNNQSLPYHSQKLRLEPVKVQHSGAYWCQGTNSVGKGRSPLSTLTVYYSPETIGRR
The experiment in a line: ELISA, plate coated with human CD22 domain5-7-His.

Test [1] has as its target T2, rhesus monkey CD22-ECD-His protein (rhesus monkey, UniProt H9G1X2 18-686).
T2 construct: extracellular domain; also called monkey CD22 protein
T2 sequence: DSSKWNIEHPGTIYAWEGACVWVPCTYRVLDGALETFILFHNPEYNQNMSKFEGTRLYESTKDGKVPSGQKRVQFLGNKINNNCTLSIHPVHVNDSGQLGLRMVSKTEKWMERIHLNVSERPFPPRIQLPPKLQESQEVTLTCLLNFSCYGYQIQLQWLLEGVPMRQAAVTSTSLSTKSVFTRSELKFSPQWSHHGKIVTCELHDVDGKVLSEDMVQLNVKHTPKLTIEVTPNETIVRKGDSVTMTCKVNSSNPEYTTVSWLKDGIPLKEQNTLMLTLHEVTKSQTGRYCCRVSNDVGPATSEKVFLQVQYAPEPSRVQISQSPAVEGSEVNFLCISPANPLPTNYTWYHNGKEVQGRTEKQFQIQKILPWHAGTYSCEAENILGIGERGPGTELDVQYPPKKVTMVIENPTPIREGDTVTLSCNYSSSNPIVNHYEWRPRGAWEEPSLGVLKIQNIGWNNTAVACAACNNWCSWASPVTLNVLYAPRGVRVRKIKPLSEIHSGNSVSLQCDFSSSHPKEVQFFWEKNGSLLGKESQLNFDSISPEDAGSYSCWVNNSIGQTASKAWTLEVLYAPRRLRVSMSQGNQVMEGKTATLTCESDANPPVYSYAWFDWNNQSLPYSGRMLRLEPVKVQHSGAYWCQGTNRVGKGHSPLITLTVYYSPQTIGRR
The experiment in a line: SPR (Biacore), antibody captured on Protein A chip, rhesus CD22 in solution.

For test [2], the target named is T3, human CD22-ECD-His protein (human, UniProt P20273 20-687).
T3 construct: Recombinant, from HEK293E cells; also called hCD22-ECD-His; human CD22-His protein; not shown: His tag
T3 sequence: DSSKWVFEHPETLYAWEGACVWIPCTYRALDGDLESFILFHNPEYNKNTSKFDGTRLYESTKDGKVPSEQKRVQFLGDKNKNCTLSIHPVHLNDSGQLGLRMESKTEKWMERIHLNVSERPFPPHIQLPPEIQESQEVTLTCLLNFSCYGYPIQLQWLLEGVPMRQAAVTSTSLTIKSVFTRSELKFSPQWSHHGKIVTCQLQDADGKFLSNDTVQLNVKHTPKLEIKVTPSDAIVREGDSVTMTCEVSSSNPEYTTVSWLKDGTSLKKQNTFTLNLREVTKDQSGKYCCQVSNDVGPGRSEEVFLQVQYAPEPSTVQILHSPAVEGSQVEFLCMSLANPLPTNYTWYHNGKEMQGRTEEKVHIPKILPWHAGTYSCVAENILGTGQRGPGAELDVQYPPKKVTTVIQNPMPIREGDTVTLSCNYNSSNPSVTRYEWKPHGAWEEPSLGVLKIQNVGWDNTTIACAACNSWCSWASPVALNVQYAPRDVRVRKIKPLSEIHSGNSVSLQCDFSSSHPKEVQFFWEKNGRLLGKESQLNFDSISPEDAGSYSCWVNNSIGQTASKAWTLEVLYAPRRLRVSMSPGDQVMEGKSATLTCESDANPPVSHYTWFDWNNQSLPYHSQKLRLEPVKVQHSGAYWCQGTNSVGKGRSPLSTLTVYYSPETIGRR
The experiment in a line: SPR (Biacore), antibody captured on Protein A chip, CD22-ECD-His in solution. How it is done: Sample buffer and running buffer were HBS-EP+(10 mM HEPES, 150 mM NaCl, 3 mM EDTA, 0.05% surfactant P20) (GE Healthcare; BR-1006-69). The flow-through cell was set to 25° C. The sample block was set to 16° C. Both were pretreated with the running buffer. In each cycle, the antibody to be tested was first captured with a Protein A chip, then a single concentration of CD22 antigen protein was injected. The binding and dissociation process of the antibody and the antigen protein was recorded, and finally Glycine pH 1.5 (GE Healthcare; BR-1003-54) was used to complete chip regeneration. Binding was measured by injecting different concentrations of recombinant human CD22-ECD His protein in solution for 240 s with a flow rate of 30 μL/min. The concentration started from 200 nM (see the detailed results for the actual concentration in the test) and was diluted at 1:1, making a total of 5 concentrations. The dissociation phase was monitored for up to 600 s and was triggered by switching from sample solution to running buffer. The surface was regenerated by washing with a 10 mM of glycine solution (pH 1.5) for 30 s at a flow rate of 30 μL/min. Bulk refractive index difference was corrected by subtracting the response obtained from the goat anti-human Fc surface. Blank injection was also subtracted (=double reference). For calculation of apparent KD and other kinetic parameters, Langmuir 1:1 model was used.
On the technique in general: Surface plasmon resonance follows binding to a sensor surface in real time, without labels.

B1: F1.267.9 (antibody, human IgG1, kappa, V domains shown)
VH: EVQLQQSGPVLVKPGASVKMSCKASGYTFTDFYMNWAKQSHGKSLEWVGVINPYNGGINYNQKFKGKATLTVDKSSSTAYMEFNSLTSEDSAVYYCARRMEYHAMDYWGQGTSVTVSS
VL: DIVLTQSPASLAVSLGQRATISCRASESVDNYGFDFIHWYQQKPGQPPKLLIYRASNLESGIPARFSGSGSRPDFTLTINPVETDDVATYYCQQSIKDPWTFGGGTKLEIKR
notes: Chimeric IgG1 kappa
On to B1, for which the binding result in the test with human CD22 domain5-7-His is recorded as “no binding”. In test [1], this molecule registered a Kd of 2.25 nM, an off-rate constant (koff) of 6e-05 s⁻¹ and a kon of 26700 M⁻¹ s⁻¹. In test [2], this molecule registered a Kd of 40.9 nM, a koff of 0.000223 s⁻¹ and a kon of 5440 M⁻¹ s⁻¹.

B2: F1.216.2 (antibody, human IgG1, kappa, V domains shown)
VH: QVQLQQSGPEVVRPGASVKISCKASGYAFSSSWMNWMKQRPGKALEWIGRIYPGDGDTNYSGEFKVKATLTADKSSSTAYMQLSSLTSEDSAVYFCAREGSYYSNPWYFDYWGQGTTLTVSS
VL: DVLVTQTPLSLPVSLGDQASISCRSSQSIVQSNGDTYLEWYLQKPGQSPKLLIYKVSNRFSGVPDRFSGSGSGTDFTLKISRVEAEDLGVYYCFQGSHVPFTFGSGTKLEIKR
notes: Chimeric IgG1 kappa
Consider B2, for which the binding result in the test with human CD22 domain5-7-His is listed as “no binding”. In test [1], this molecule returned a Kd of 7.18 nM, a koff of 0.000538 s⁻¹ and a kon of 74900 M⁻¹ s⁻¹. In test [2], this molecule gave a Kd of 25.3 nM, a koff of 0.000944 s⁻¹ and a kon of 37300 M⁻¹ s⁻¹.

B3: F1.17.1 (antibody, human IgG1, kappa, V domains shown)
VH: QVQLKESGPGLVAPSQSLSITCTVSGFSLSRYTVHWVRQPPGKGLEWLGMIWGGGSTDYNSALKSRLSISKDNSKSQVFLKMNSLQTDDTAMYYCARPHDFDAGGFAYWGQGTLVTVSA
VL: QIVLTQSPAILSTSPGEKVTMTCSASSRVNYMYWYQQKPGSSPRLLIYDTSNLASGVPVRFSGSGSGTSYSLTISRMEAEDAATYYCQQWTSYPLTFGAGTKLELKR
notes: Chimeric IgG1 kappa
As to B3, the binding result in the test with human CD22 domain5-7-His was “no binding”. Also, in test [1], binding was characterised by a dissociation constant (Kd) of 3.67 nM, the koff was 0.000531 s⁻¹ and the on-rate constant (kon) worked out at 144000 M⁻¹ s⁻¹. Further, in test [2], the Kd is 2.07 nM, the dissociation rate constant (koff) stood at 0.000498 s⁻¹ and the kon was 241000 M⁻¹ s⁻¹.

B4: F1.224.1 (antibody, human IgG1, kappa, V domains shown)
VH: EVLLHQSGPELVKPGASVKISCKASGYTFTDFNMDWVRQRHGQSLEWIGDVNPNNGGTIYNQKFKGKATLTVDKSSSTVYMDLRSLTSDDTAVYYCVRLGTSDYGEAWFISWGQGTVVTVSA
VL: DIVLTQSPASLAVSLGQRATISCRASQSVSTPRYSFMHWYQQKPGQPPKLLIKYASNLESGFPARFTGSGSGTDFTLNIHPVEEEDTAAYYCQQSWAIPWTFGGGTKLEIKR
notes: Chimeric IgG1 kappa
In the case of B4, the binding result with human CD22 domain5-7-His is given as “no binding”. In test [1], this molecule had a Kd of 2.04 nM, a koff of 0.000107 s⁻¹ and a kon of 52300 M⁻¹ s⁻¹. In test [2], this molecule registered a Kd of 13.8 nM, a koff of 0.000267 s⁻¹ and a kon of 19400 M⁻¹ s⁻¹.

B5: F1.250.16 (antibody, human IgG1, kappa, V domains shown)
VH: QVQLQQSGAEQVKPGASVKMSCKASGYTFTTYPIEWMKQNHGESLDWIGNIHPYNDDTEYNEKFKGKATLTVEKSSNTVFLELSRLTSDDSAVYYCVRGDYYNSRYWYFDVWGTGTTVTVSS
VL: DIVMTQSQKFMSTTVGDRVSITCKAGQNVRTAVAWYQQKPGQSPKLLIYSASTRYIGVPERFTGSGSGTDFTLTITNMQSEDLADYFCQQYSSFPLTFGTGTKLELKR
notes: Chimeric IgG1 kappa
Consider B5, for which the binding result in the test with human CD22 domain5-7-His was “no binding”. In test [1], this molecule yielded a Kd of 3.48 nM, a koff of 0.00127 s⁻¹ and a kon of 366000 M⁻¹ s⁻¹. In test [2], the affinity, expressed as Kd, was 1.44 nM; the koff was 0.000607 s⁻¹; the kon worked out at 422000 M⁻¹ s⁻¹.
